Experimental data from the array DNA melting data of Ke et al..

Test: melting temperature; melt of duplexes
Conditions: sodium 0.0675 M; strand 1 µM
“CGACGTGCGGGATGTGCTG+CAGCACATCAAGCACGTCG ((((((((..(((((((((+)))))))))..))))))))” gave a Tm of 57.6 °C.
For “CGACGTGCTAAATGTGCTG+CAGCACATTACGCACGTCG ((((((((..(((((((((+)))))))))..))))))))”, the Tm was 51.4 °C.
“CGACGTGCAGTATGTGCTG+CAGCACATGCCGCACGTCG ((((((((.(.((((((((+)))))))).).))))))))” showed a Tm of 52.8 °C.
In the case of “CGACGTGCGGAATGTGCTG+CAGCACATAAAGCACGTCG ((((((((...((((((((+))))))))...))))))))”, the Tm is reported as 55.5 °C.
Work on “CGACGTGCGTCATGTGCTG+CAGCACATAGTGCACGTCG ((((((((...((((((((+))))))))...))))))))” yielded a Tm of 45.9 °C.
“CGACGTGCTCGATGTGCTG+CAGCACATGTTGCACGTCG ((((((((...((((((((+))))))))...))))))))” showed a Tm of 49.5 °C.
In the case of “CGACGTGCCGTATGTGCTG+CAGCACATTTCGCACGTCG ((((((((...((((((((+))))))))...))))))))”, the Tm is reported as 48.5 °C.
“CGACGTGCGAAATGTGCTG+CAGCACATCCCGCACGTCG (((((((((..((((((((+))))))))..)))))))))” showed a Tm of 52.9 °C.
Substance “CGACGTGCCCGATGTGCTG+CAGCACATGCGGCACGTCG (((((((((..((((((((+))))))))..)))))))))” has a Tm of 54.6 °C.
In the case of “CGACGTGCGCTATGTGCTG+CAGCACATGTGGCACGTCG ((((((((...((((((((+))))))))...))))))))”, the Tm is reported as 50.8 °C.
“CGACGTGCTCCATGTGCTG+CAGCACATTAAGCACGTCG (((((((((..((((((((+))))))))..)))))))))” showed a Tm of 49.4 °C.
In the case of “CGACGTGCGAGATGTGCTG+CAGCACATGCCGCACGTCG (((((((((..((((((((+))))))))..)))))))))”, the Tm is reported as 55.4 °C.
Work on “CGACGTGCTCCATGTGCTG+CAGCACATATGGCACGTCG ((((((((...((((((((+))))))))...))))))))” yielded a Tm of 49 °C.
“CGACGTGCTCCATGTGCTG+CAGCACATAAGGCACGTCG ((((((((...((((((((+))))))))...))))))))” gave a Tm of 49 °C.
For “CGACGTGCGGAATGTGCTG+CAGCACATCGAGCACGTCG ((((((((...((((((((+))))))))...))))))))”, the Tm was 54.6 °C.
Substance “CGACGTGCTCTATGTGCTG+CAGCACATGATGCACGTCG ((((((((...((((((((+))))))))...))))))))” has a Tm of 51.1 °C.
In the case of “CGACGTGCATGATGTGCTG+CAGCACATCTCGCACGTCG ((((((((..(((((((((+)))))))))..))))))))”, the Tm is reported as 53.9 °C.
“CGACGTGCATCATGTGCTG+CAGCACATATGGCACGTCG ((((((((...((((((((+))))))))...))))))))” gave a Tm of 48.8 °C.
Substance “CGACGTGCTTTATGTGCTG+CAGCACATGATGCACGTCG ((((((((.(.((((((((+)))))))).).))))))))” has a Tm of 52.1 °C.
Substance “CGACGTGCACAATGTGCTG+CAGCACATTGGGCACGTCG ((((((((.((((((((((+)))))))))).))))))))” has a Tm of 61.2 °C.
“CGACGTGCCTCATGTGCTG+CAGCACATCCCGCACGTCG ((((((((...((((((((+))))))))...))))))))” showed a Tm of 46.5 °C.
“CGACGTGCGCAATGTGCTG+CAGCACATAGAGCACGTCG ((((((((.(.((((((((+)))))))).).))))))))” showed a Tm of 54.7 °C.
With “CGACGTGCCTTATGTGCTG+CAGCACATGAGGCACGTCG ((((((((((.((((((((+)))))))).))))))))))” the Tm was 59.4 °C.
Work on “CGACGTGCCTTATGTGCTG+CAGCACATAAAGCACGTCG ((((((((.((((((((((+)))))))))).))))))))” yielded a Tm of 53.4 °C.
“CGACGTGCTCTATGTGCTG+CAGCACATCCCGCACGTCG ((((((((...((((((((+))))))))...))))))))” gave a Tm of 47.5 °C.
“CGACGTGCGCAATGTGCTG+CAGCACATGCGGCACGTCG ((((((((...((((((((+))))))))...))))))))” gave a Tm of 56.3 °C.
For “CGACGTGCCGAATGTGCTG+CAGCACATCACGCACGTCG ((((((((...((((((((+))))))))...))))))))”, the Tm was 48.9 °C.
For “CGACGTGCAAGATGTGCTG+CAGCACATGCGGCACGTCG ((((((((...((((((((+))))))))...))))))))”, the Tm was 50.2 °C.
“CGACGTGCCCGATGTGCTG+CAGCACATCACGCACGTCG ((((((((..(((((((((+)))))))))..))))))))” gave a Tm of 52.2 °C.
“CGACGTGCTATATGTGCTG+CAGCACATAGTGCACGTCG ((((((((..(((((((((+)))))))))..))))))))” gave a Tm of 49 °C.
“CGACGTGCTACATGTGCTG+CAGCACATCAAGCACGTCG (((((((((..((((((((+))))))))..)))))))))” showed a Tm of 50.6 °C.
In the case of “CGACGTGCCGTATGTGCTG+CAGCACATTGAGCACGTCG ((((((((...((((((((+))))))))...))))))))”, the Tm is reported as 49.8 °C.
For “CGACGTGCACAATGTGCTG+CAGCACATCACGCACGTCG ((((((((...((((((((+))))))))...))))))))”, the Tm was 45.3 °C.
Work on “CGACGTGCTGAATGTGCTG+CAGCACATGTCGCACGTCG ((((((((...((((((((+))))))))...))))))))” yielded a Tm of 52.1 °C.
In the case of “CGACGTGCCTCATGTGCTG+CAGCACATCAGGCACGTCG ((((((((((.((((((((+)))))))).))))))))))”, the Tm is reported as 55 °C.
“CGACGTGCGGGATGTGCTG+CAGCACATACAGCACGTCG ((((((((.(.((((((((+)))))))).).))))))))” showed a Tm of 56.5 °C.
With “CGACGTGCGCTATGTGCTG+CAGCACATACGGCACGTCG ((((((((..(((((((((+)))))))))..))))))))” the Tm was 50.6 °C.
“CGACGTGCGTTATGTGCTG+CAGCACATATGGCACGTCG ((((((((..(((((((((+)))))))))..))))))))” showed a Tm of 51.1 °C.
“CGACGTGCCCAATGTGCTG+CAGCACATATAGCACGTCG ((((((((...((((((((+))))))))...))))))))” showed a Tm of 48.5 °C.
With “CGACGTGCTACATGTGCTG+CAGCACATTAGGCACGTCG ((((((((...((((((((+))))))))...))))))))” the Tm was 50.5 °C.
For “CGACGTGCCAAATGTGCTG+CAGCACATTTTGCACGTCG ((((((((.((((((((((+)))))))))).))))))))”, the Tm was 55.1 °C.
Substance “CGACGTGCACAATGTGCTG+CAGCACATATCGCACGTCG ((((((((...((((((((+))))))))...))))))))” has a Tm of 44.6 °C.
“CGACGTGCGCTATGTGCTG+CAGCACATTTAGCACGTCG ((((((((...((((((((+))))))))...))))))))” showed a Tm of 51.6 °C.
With “CGACGTGCTCCATGTGCTG+CAGCACATTCGGCACGTCG ((((((((...((((((((+))))))))...))))))))” the Tm was 47.6 °C.
“CGACGTGCACCATGTGCTG+CAGCACATTTAGCACGTCG ((((((((...((((((((+))))))))...))))))))” showed a Tm of 42.2 °C.
“CGACGTGCGGAATGTGCTG+CAGCACATATAGCACGTCG ((((((((...((((((((+))))))))...))))))))” gave a Tm of 55 °C.
Work on “CGACGTGCCGGATGTGCTG+CAGCACATCGCGCACGTCG ((((((((..(((((((((+)))))))))..))))))))” yielded a Tm of 55.4 °C.
“CGACGTGCCTGATGTGCTG+CAGCACATCATGCACGTCG ((((((((.((((((((((+)))))))))).))))))))” showed a Tm of 56.9 °C.
With “CGACGTGCAGCATGTGCTG+CAGCACATAAGGCACGTCG ((((((((...((((((((+))))))))...))))))))” the Tm was 47.6 °C.
“CGACGTGCTTGATGTGCTG+CAGCACATCCAGCACGTCG (((((((((.(((((((((+))))))))).)))))))))” showed a Tm of 57.1 °C.
“CGACGTGCCCTATGTGCTG+CAGCACATAACGCACGTCG ((((((((..(((((((((+)))))))))..))))))))” showed a Tm of 48.7 °C.
Work on “CGACGTGCGCGATGTGCTG+CAGCACATAATGCACGTCG ((((((((...((((((((+))))))))...))))))))” yielded a Tm of 50 °C.
For “CGACGTGCGTTATGTGCTG+CAGCACATGGCGCACGTCG (((((((((..((((((((+))))))))..)))))))))”, the Tm was 57.5 °C.
Substance “CGACGTGCCGCATGTGCTG+CAGCACATTTTGCACGTCG ((((((((...((((((((+))))))))...))))))))” has a Tm of 46.2 °C.
“CGACGTGCAACATGTGCTG+CAGCACATCCGGCACGTCG ((((((((...((((((((+))))))))...))))))))” showed a Tm of 47.7 °C.
“CGACGTGCGCCATGTGCTG+CAGCACATGAAGCACGTCG ((((((((..(((((((((+)))))))))..))))))))” gave a Tm of 57.1 °C.
In the case of “CGACGTGCGCCATGTGCTG+CAGCACATCATGCACGTCG ((((((((...((((((((+))))))))...))))))))”, the Tm is reported as 47.8 °C.
“CGACGTGCAGAATGTGCTG+CAGCACATCCTGCACGTCG ((((((((((.((((((((+)))))))).))))))))))” gave a Tm of 57.4 °C.
“CGACGTGCTTTATGTGCTG+CAGCACATGCAGCACGTCG (((((((((..((((((((+))))))))..)))))))))” gave a Tm of 50.9 °C.
With “CGACGTGCAGTATGTGCTG+CAGCACATTCCGCACGTCG ((((((((.(.((((((((+)))))))).).))))))))” the Tm was 50.1 °C.
Work on “CGACGTGCGAGATGTGCTG+CAGCACATCGAGCACGTCG ((((((((..(((((((((+)))))))))..))))))))” yielded a Tm of 64.5 °C.
Substance “CGACGTGCAGCATGTGCTG+CAGCACATTACGCACGTCG ((((((((...((((((((+))))))))...))))))))” has a Tm of 45.1 °C.
Substance “CGACGTGCCTTATGTGCTG+CAGCACATCTGGCACGTCG (((((((((..((((((((+))))))))..)))))))))” has a Tm of 53.7 °C.
“CGACGTGCGGCATGTGCTG+CAGCACATTTCGCACGTCG (((((((((..((((((((+))))))))..)))))))))” gave a Tm of 53.4 °C.
“CGACGTGCAGGATGTGCTG+CAGCACATTCCGCACGTCG ((((((((.(.((((((((+)))))))).).))))))))” showed a Tm of 54.6 °C.
With “CGACGTGCATAATGTGCTG+CAGCACATCAAGCACGTCG ((((((((.(.((((((((+)))))))).).))))))))” the Tm was 48.4 °C.
“CGACGTGCAGTATGTGCTG+CAGCACATAAAGCACGTCG ((((((((..(((((((((+)))))))))..))))))))” showed a Tm of 51.7 °C.
With “CGACGTGCTGCATGTGCTG+CAGCACATAATGCACGTCG ((((((((...((((((((+))))))))...))))))))” the Tm was 50.7 °C.
“CGACGTGCGCTATGTGCTG+CAGCACATGCGGCACGTCG ((((((((...((((((((+))))))))...))))))))” gave a Tm of 54 °C.
For “CGACGTGCCCGATGTGCTG+CAGCACATGCAGCACGTCG ((((((((...((((((((+))))))))...))))))))”, the Tm was 49.6 °C.
In the case of “CGACGTGCTGGATGTGCTG+CAGCACATGTGGCACGTCG ((((((((...((((((((+))))))))...))))))))”, the Tm is reported as 52.6 °C.
In the case of “CGACGTGCCAAATGTGCTG+CAGCACATTCTGCACGTCG ((((((((..(((((((((+)))))))))..))))))))”, the Tm is reported as 51.5 °C.
